B1: YidC23C labelled with Atto520 (YidC W23C, single cysteine) (natural protein)
chain: MDSQRNLLVIALLFVSFMIWQACEQDKNPQPQAQQTTQTTTTAAGSAADQGVPASGQGKLISVKTDVLDLTINTRGGDVEQALLPAYPKELNSTQPFQLLETSPQFIYQAQSGLTGRDGPDNPANGPRPLYNVEKDAYVLAEGQNELQVPMTYTDAAGNTFTKTFVLKRGDYAVNVNYNVQNAGEKPLEISSFGQLKQSITLPPHLDTGSSNFALHTFRGAAYSTPDEKYEKYKFDTIADNENLNISSKGGWVAMLQQYFATAWIPHNDGTNNFYTANLGNGIAAIGYKSQPVLVQPGQTGAMNSTLWVGPEIQDKMAAVAPHLDLTVDYGWLWFISQPLFKLLKWIHSFVGNWGFSIIIITFIVRGIMYPLTKAQYTSMAKMRMLQPKIQAMRERLGDDKQRISQEMMALYKAEKVNPLGGSFPLLIQMPIFLALYYMLMGSVELRQAPFALWIHDLSAQDPYYILPILMGVTMFFIQKMSPTTVTDPMQQKIMTFMPVIFTVFFLWFPSGLVLYYIVSNLVTIIQQQLIYRGLEKRGLHSREKKKS
modifications: Atto520 (maleimide dye) on cysteine 23; labelling efficiency 18%
B2: SecYEG with SecY142C labelled with Atto647N (complex)
chain 1: MAKQPGLDFQSAKGGLGELKRRLLFVIGALIVFRIGSFIPIPGIDAAVLAKLLEQQRGTIIEMFNMFSGGALSRASIFALGIMPYISASIIIQLLTVVHPTLAEIKKEGESGRRKISQYTRYGTLVLAIFQSIGIATGLPNCPGMQGLVINPGFAFYFTAVVSLVTGTMFLMWLGEQITERGIGNGISIIIFAGIVAGLPPAIAHTIEQARQGDLHFLVLLLVAVLVFAVTFFVVFVERGQRRIVVNYAKRQQGRRVYAAQSTHLPLKVNMAGVIPAIFASSIILFPATIASWFGGGTGWNWLTTISLYLQPGQPLYVLLYASAIIFFSFFYTALVFNPRETADNLKKSGAFVPGIRPGEQTAKYIDKVMTRLTLVGALYITFISLIPEFMRDAMKVPFYFGGTSLLIVVVVIMDFMAQVQTLMMSSQYESALKKANLKGYGR
chain 2: MSANTEAQGSGRGLEAMKWVVVVALLLVAIVGNYLYRDIMLPLRALAVVILIAAAGGVALLTTKGKATVAFAREARTEVRKVIWPTRQETLHTTLIVAAVTAVMSLILWGLDGILVRLVSFITGLRF
chain 3: MYEALLVVFLIVAIGLVGLIMLQQGKGADMGASFGAGASATLFGSSGSGNFMTRMTALLATLFFIISLVLGNINSNKTNKGSEWENLSAPAKTEQTQPAAPAKPTSDIPN
modifications: Atto647N (maleimide dye) on cysteine 142; labelling efficiency 24%

Key:
[1] = molecular target: B2; assay: FRET or BRET; ensemble FRET in detergent: 0.55 µM YidC-Atto520 (donor) in 0.03% dodecyl maltoside titrated with increasing SecYEG-Atto647N (acceptor); excitation 516 nm, donor at 538 nm, acceptor at 669 nm; buffer controls for dilution; Kd by Lineweaver-Burk linearisation; details: both partners purified
[2] = molecular target: B1; assay: as above; details: both partners purified

| Kd [1] | stoichiometry N [2] | Binder |
| --- | --- | --- |
| 27 ± 10 nM |  | B1 |
|  | 1 | B2 |

— PMC7886851 (Scientific Reports, 2021)
